Literature values, collected in article doi:10.1101/2022.02.18.481064.

Biological target: Cys106 (UniProt position 106, LIAAICAGPTA)
Conditions: Reduced Cys106 thiol/thiolate is implied. The state is otherwise not stated.

For “DJ-1 (Parkinson disease protein 7, PARK7) (Homo sapiens)”, the pKa is given as 5.4.
